Here are results for four molecules from patent US20220251166A1 (Chugai, published 2022).

Substitutions are numbered along the chain they refer to.

For this experiment, the target named is human CD3 on Jurkat luciferase reporter T cells (human). As to the kind of experiment: cell-based or functional assay.

B1: TR01H113-mF18/TR01L0011-mk1 (anti-CD3) (antibody, mouse IgG1, kappa)
heavy: QVQLVESGGGVVQPGGSLRLSCAASGFTFSNAWMHWVRQAPGKGLEWVAQIKDKSQNYATYVAESVKGRFTISRADSKNSIYLQMNSLKTEDTAVYYCRYVHYAAGYGVDIWGQGTTVTVSSAKTTPPSVYPLAPGSAAQTNSMVTLGCLVKGYFPEPVTVTWNSGSLSSGVHTFPAVLQSDLYTLSSSVTVPSSTWPSETVTCNVAHPASSTKVDKKIVPRDCGCKPCICTVKEVSKVFIFPPKPKDVLTITLTPKVTCVVVDISKDDPEVQFSWFVDDVEVHTAQTQPREEQFNSTFRSVSELPIMHQDWLNGKEFKCRVNSAAFPAPIEKTISKTKGRPKAPQVYTIPPPKEQMAKDKVSLTCMITDFFPEDITVEWQWNGQPAENYKNTQPIMDTDGSYFVYSKLNVQKSNWEAGNTFTCSVLHEGLHNHHTEKSLSHSPGK
light: DIVMTQSPLSLPVTPGEPASISCRSSQPLVHSNRNTYLHWYQQKPGQAPRLLIYKVSNRFSGVPDRFSGSGSGTDFTLKISRVEAEDVGVYYCGQGTQVPYTFGQGTKLEIKRADAAPTVSIFPPSSEQLTSGGASVVCFLNNFYPKDINVKWKIDGSERQNGVLNSWTDQDSKDSTYSMSSTLTLTKDEYERHNSYTCEATHKTSTSPIVKSFNRNEC
For B1, the “relative fold induction of luciferase, Jurkat luciferase reporter T cells co-cultured with dead (MTX treated) Ba/F3 cells” value is approximately 20 fold and the “relative luciferase signal (fold induction, maximum), Jurkat luciferase reporter T cells co-cultured with live (untreated) Ba/F3 cells” value was approximately 22 fold.

B2: TR01H113-mF18.G3S2.mC9ECD57/TR01L0011-mk1 (anti-CD3-Clec9A ECD) (antibody, mouse IgG1, kappa)
heavy: QVQLVESGGGVVQPGGSLRLSCAASGFTFSNAWMHWVRQAPGKGLEWVAQIKDKSQNYATYVAESVKGRFTISRADSKNSIYLQMNSLKTEDTAVYYCRYVHYAAGYGVDIWGQGTTVTVSSAKTTPPSVYPLAPGSAAQTNSMVTLGCLVKGYFPEPVTVTWNSGSLSSGVHTFPAVLQSDLYTLSSSVTVPSSTWPSETVTCNVAHPASSTKVDKKIVPRDCGCKPCICTVKEVSKVFIFPPKPKDVLTITLTPKVTCVVVDISKDDPEVQFSWFVDDVEVHTAQTQPREEQFNSTFRSVSELPIMHQDWLNGKEFKCRVNSAAFPAPIEKTISKTKGRPKAPQVYTIPPPKEQMAKDKVSLTCMITDFFPEDITVEWQWNGQPAENYKNTQPIMDTDGSYFVYSKLNVQKSNWEAGNTFTCSVLHEGLHNHHTEKSLSHSPGKGGGSGGGSKFFQVSSLVLEQQERLIQQDTALVNLTQWQRKYTLEYCQALLQRSLHSGTDASTGPVLLTSPQMVPQTLDSKETGSDCSPCPHNWIQNGKSCYYVFERWEMWNISKKSCLKEGASLFQIDSKEEMEFISSIGKLKGGNKYWVGVFQDGISGSWFWEDGSSPLSDLLPAERQRSAGQICGYLKDSTLISDKCDSWKYFICEKKAFGSCI
light: B1 light
B2: the “relative luciferase activity (fold, maximum), Jurkat luciferase reporter T cells co-cultured with dead (MTX treated) Ba/F3 cells” value is approximately 54 fold and the “relative luciferase signal (fold induction), Jurkat luciferase reporter T cells co-cultured with live (untreated) Ba/F3 cells” value was approximately 5 fold.

B3: TX_3G4VH-mBS1001b/3G4VL-mk1//TR01H113-mBS1001a/TR01L0011-mk1 (anti-PS(3G4)//CD3) (bispecific antibody, mouse IgG1, kappa)
heavy 1: EVQLQQSGPELEKPGASVKLSCKASGYSFTGYNMNWVKQSHGKSLEWIGHIDPYYGDTSYNQKFRGKATLTVDKSSSTAYMQLKSLTSEDSAVYYCVKGGYYGHWYFDVWGAGTTVTVSSAKTTPPSVYPLAPGSAAQTNSMVTLGCLVKGYFPEPVTVTWNSGSLSSGVHTFPAVLQSDLYTLSSSVTVPSSTWPSETVTCNVAHPASSTKVDKKIVPRDCGCKPCICTVKEVSKVFIFPPKPKDVLTITLTPKVTCVVVDISKDDPEVQFSWFVDDVEVHTAQTQPREEQFNSTFRSVSELPIMHQDWLNGKEFKCRVNSAAFPAPIEKTISKTKGRPKAPQVYTIPPPKEQMAKDKVSLTCMITDFFPEDITVEWQWNGQPAENYKNTQPIMRTDGSYFVYSKLNVQKSNWEAGNTFTCSVLHEGLHNHHTEKSLSHSPGK
light 1: DIQMTQSPSSLSASLGERVSLTCRASQDIGSSLNWLQQGPDGTIKRLIYATSSLDSGVPKRFSGSRSGSDYSLTISSLESEDFVDYYCLQYVSSPPTFGAGTKLELKRADAAPTVSIFPPSSEQLTSGGASVVCFLNNFYPKDINVKWKIDGSERQNGVLNSWTDQDSKDSTYSMSSTLTLTKDEYERHNSYTCEATHKTSTSPIVKSFNRNEC
heavy 2: B1 heavy with K408E
light 2: B1 light
For the molecule B3, the “luciferase signal (fold induction) at 5 nM antibody, Jurkat reporter T cells co-cultured with dead Ba/F3 cells” value was 16 fold and the “luciferase signal (fold induction) at 25 nM antibody, Jurkat reporter T cells co-cultured with dead Ba/F3 cells” value worked out at 70 fold.

B4: TR01H113-mF18.G3S2.mC9.131/TR01L0011-mk1 (anti-CD3-Clec9A CTLD) (antibody, mouse IgG1, kappa)
heavy: QVQLVESGGGVVQPGGSLRLSCAASGFTFSNAWMHWVRQAPGKGLEWVAQIKDKSQNYATYVAESVKGRFTISRADSKNSIYLQMNSLKTEDTAVYYCRYVHYAAGYGVDIWGQGTTVTVSSAKTTPPSVYPLAPGSAAQTNSMVTLGCLVKGYFPEPVTVTWNSGSLSSGVHTFPAVLQSDLYTLSSSVTVPSSTWPSETVTCNVAHPASSTKVDKKIVPRDCGCKPCICTVKEVSKVFIFPPKPKDVLTITLTPKVTCVVVDISKDDPEVQFSWFVDDVEVHTAQTQPREEQFNSTFRSVSELPIMHQDWLNGKEFKCRVNSAAFPAPIEKTISKTKGRPKAPQVYTIPPPKEQMAKDKVSLTCMITDFFPEDITVEWQWNGQPAENYKNTQPIMDTDGSYFVYSKLNVQKSNWEAGNTFTCSVLHEGLHNHHTEKSLSHSPGKGGGSGGGSGSDCSPCPHNWIQNGKSCYYVFERWEMWNISKKSCLKEGASLFQIDSKEEMEFISSIGKLKGGNKYWVGVFQDGISGSWFWEDGSSPLSDLLPAERQRSAGQICGYLKDSTLISDKCDSWKYFICEKKAFGSCI
light: B1 light
As to B4, the “relative luciferase activity (fold, maximum), Jurkat luciferase reporter T cells co-cultured with dead (MTX treated) Ba/F3 cells” value is approximately 46 fold and the “relative luciferase signal (fold induction), Jurkat luciferase reporter T cells co-cultured with live (untreated) Ba/F3 cells” value is approximately 5 fold.
